Data: patent US10766960 (dated 2020)
Positions count from the first letter of the chain named. Each block holds one binder with its values, some of them ahead of it.

Legend:
Test in all cases: SPR
FcgRIa = biological target: T1, FcgRIa (human, UniProt P12314)
T1 chain: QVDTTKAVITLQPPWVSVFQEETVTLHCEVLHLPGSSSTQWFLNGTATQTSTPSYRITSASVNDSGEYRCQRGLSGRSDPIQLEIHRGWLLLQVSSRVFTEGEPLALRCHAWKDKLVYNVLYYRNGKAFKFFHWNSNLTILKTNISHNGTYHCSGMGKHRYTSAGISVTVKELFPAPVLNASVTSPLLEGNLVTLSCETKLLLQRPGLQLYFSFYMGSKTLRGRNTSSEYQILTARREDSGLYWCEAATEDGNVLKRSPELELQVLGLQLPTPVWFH

FcgRIIa H = biological target: T2, FcgRIIa H (human, UniProt P12318)
T2 chain: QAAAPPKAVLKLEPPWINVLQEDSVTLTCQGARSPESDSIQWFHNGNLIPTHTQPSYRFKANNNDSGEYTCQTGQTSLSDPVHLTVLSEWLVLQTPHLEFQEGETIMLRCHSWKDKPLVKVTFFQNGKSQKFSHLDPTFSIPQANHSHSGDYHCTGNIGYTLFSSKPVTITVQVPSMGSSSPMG

FcgRIIIa F = FcgRIIIa F (human, UniProt P08637)
FcgRIIb = biological target: T3, FcgRIIb (human, UniProt P31994)
T3 chain: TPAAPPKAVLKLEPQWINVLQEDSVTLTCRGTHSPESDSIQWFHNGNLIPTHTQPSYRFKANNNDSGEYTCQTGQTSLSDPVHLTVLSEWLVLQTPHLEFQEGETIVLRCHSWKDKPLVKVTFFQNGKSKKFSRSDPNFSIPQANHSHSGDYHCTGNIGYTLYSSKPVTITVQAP

FcgRIIa R = biological target: T4, FcgRIIa R (human, UniProt P12318)
T4 chain: T2 chain with H134R

FcgRIIIa V = FcgRIIIa V (human, UniProt P08637)
Sequence of FcgRIIIa V (P08637 17-208 F176V): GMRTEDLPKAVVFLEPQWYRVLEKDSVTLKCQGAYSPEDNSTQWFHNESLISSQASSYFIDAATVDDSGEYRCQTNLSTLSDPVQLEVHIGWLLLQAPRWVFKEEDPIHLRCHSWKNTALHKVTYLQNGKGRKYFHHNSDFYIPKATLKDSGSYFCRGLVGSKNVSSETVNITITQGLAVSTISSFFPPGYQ

Sequence of FcgRIIIa F (P08637 17-208): as the sequence (P08637 17-208 F176V) above, with V160F counted along it

B1: H240-Kn226/H240-Hl210/L73-k0 (antibody)
chain 1: QDQLVQSGAEVKKPGASVKVSCKASGFNIKDTYIQWVRQAPGQGLEWMGRIDPLRKQTKYREKFEGRVTITADTSTNTAYMELSSLRSEDTAVYYCVRSGREFDYWGQGTLVTVSSASTKGPSVFPLAPSSKSTSGGTAALGCLVKDYFPEPVTVSWNSGALTSGVHTFPAVLQSSGLYSLSSVVTVPSSSLGTQTYICNVNHKPSNTKVDKKVEPKSCDKTHTCPPCPAPEFQWGPIVFLFPPKPKDTLMISRTPEVTCVVVDVSDEEPEVKFNWYVDGVEVHNAKTKPREEQYNATYRVVSVLTVLHQDWLNGKEYKCKVSNKALPAPIEKTISKAKGQPREPQVCTLPPSRDELTKNQVSLWCLVKGFYPSDIAVEWESNGQPENNYKTTPPVLDSDGSFFLYSKLTVDKSRWQQGNVFSCSVMHEALHNHYTQKSLSLSP
chain 2: QDQLVQSGAEVKKPGASVKVSCKASGFNIKDTYIQWVRQAPGQGLEWMGRIDPLRKQTKYREKFEGRVTITADTSTNTAYMELSSLRSEDTAVYYCVRSGREFDYWGQGTLVTVSSASTKGPSVFPLAPSSKSTSGGTAALGCLVKDYFPEPVTVSWNSGALTSGVHTFPAVLQSSGLYSLSSVVTVPSSSLGTQTYICNVNHKPSNTKVDKKVEPKSCDKTHTCPPCPAPELLGGPSVFLFPPKPKDTLMISRTPEVTCVVVDVSHEEPEVKFNWYVDGVEVHNAKTKPREEQYNSTYRVVSVLTVLHQDWLNGKEYKCKVSNDALPAPIEETISKAKGQPREPQVYTLPPSRCELTKNQVSLSCAVKGFYPSDIAVEWESNGQPENNYKTTPPVLDSDGSFFLVSKLTVDKSRWQQGNVFSCSVMHEALHNHYTQKSLSLSP
chain 3: DIQMTQSPSSLSASVGDRVTITCRASQDIHKYIAWYQQKPGQAPRLLIQYTSTLQPGVPSRFSGSGSGTDYTFTISSLQPEDIATYYCLQYEQLRTFGGGTKVEIKRTVAAPSVFIFPPSDEQLKSGTASVVCLLNNFYPREAKVQWKVDNALQSGNSQESVTEQDSKDSTYSLSSTLTLSKADYEKHKVYACEVTHQGLSSPVTKSFNRGEC
- Kd (FcgRIa): 0.11 nM
- Kd (FcgRIIa H): 120 nM
- Kd (FcgRIIIa F): 3.7 nM
- Kd (FcgRIIb): 3100 nM
- Kd (FcgRIIa R): 310 nM
- Kd (FcgRIIIa V): 0.85 nM

B2: H240-Kn202/H240-Hl210/L73-k0 (antibody)
chain 1: B1 chain 1 with F233E, I238M
chain 2: B1 chain 2
chain 3: B1 chain 3
- Kd (FcgRIa): 0.17 nM
- Kd (FcgRIIa H): 230 nM
- Kd (FcgRIIIa F): 3.3 nM
- Kd (FcgRIIb): 2200 nM
- Kd (FcgRIIa R): 320 nM
- Kd (FcgRIIIa V): 0.53 nM

B3: H240-Kn203/H240-Hl210/L73-k0 (antibody)
chain 1: B1 chain 1 with Q234Y, I238M, E269D, A326D
chain 2: B1 chain 2
chain 3: B1 chain 3
- Kd (FcgRIa): 0.16 nM
- Kd (FcgRIIa H): 93 nM
- Kd (FcgRIIIa F): 3 nM
- Kd (FcgRIIb): 300 nM
- Kd (FcgRIIa R): 56 nM
- Kd (FcgRIIIa V): 0.45 nM

B4: H240-Kn228/H240-Hl214/L73-k0 (antibody)
chain 1: B1 chain 1 with F233D
chain 2: B1 chain 2 with A329F
chain 3: B1 chain 3
- Kd (FcgRIa): 0.12 nM
- Kd (FcgRIIa H): 270 nM
- Kd (FcgRIIIa F): 1.9 nM
- Kd (FcgRIIb): 2300 nM
- Kd (FcgRIIa R): 320 nM
- Kd (FcgRIIIa V): 0.77 nM

B5: H240-Kn200/H240-Hl068/L73-k0 (antibody)
chain 1: B1 chain 1 with F233S, I238M
chain 2: B1 chain 2 with A329K
chain 3: B1 chain 3
- Kd (FcgRIa): 0.5 nM
- Kd (FcgRIIa H): 69 nM
- Kd (FcgRIIIa F): 4.6 nM
- Kd (FcgRIIb): 2800 nM
- Kd (FcgRIIa R): 280 nM
- Kd (FcgRIIIa V): 1.2 nM

B6: H240-Kn228/H240-Hl210/L73-k0 (antibody)
chain 1: B1 chain 1 with F233D
chain 2: B1 chain 2
chain 3: B1 chain 3
- Kd (FcgRIa): 0.16 nM
- Kd (FcgRIIa H): 190 nM
- Kd (FcgRIIIa F): 4.4 nM
- Kd (FcgRIIb): 1700 nM
- Kd (FcgRIIa R): 200 nM
- Kd (FcgRIIIa V): 0.81 nM

B8: H240-Kn201/H240-Hl068/L73-k0 (antibody)
chain 1: B1 chain 1 with I238M
chain 2: B1 chain 2 with A329K
chain 3: B1 chain 3
- Kd (FcgRIa): 0.26 nM
- Kd (FcgRIIa H): 56 nM
- Kd (FcgRIIIa F): 5.3 nM
- Kd (FcgRIIb): 3900 nM
- Kd (FcgRIIa R): 360 nM
- Kd (FcgRIIIa V): 1.2 nM

B11: H240-Kn235/H240-Hl068/L73-k0 (antibody)
chain 1: B1 chain 1 with Q234Y, E269D, A326D
chain 2: B1 chain 2 with A329K
chain 3: B1 chain 3
- Kd (FcgRIa): 0.15 nM
- Kd (FcgRIIa H): 37 nM
- Kd (FcgRIIIa F): 2.7 nM
- Kd (FcgRIIb): 220 nM
- Kd (FcgRIIa R): 23 nM
- Kd (FcgRIIIa V): 0.87 nM

B15: H240-Kn232/H240-Hl068/L73-k0 (antibody)
chain 1: B1 chain 1 with F233L, Q234Y, E269D, A326D
chain 2: B1 chain 2 with A329K
chain 3: B1 chain 3
- Kd (FcgRIa): 0.23 nM
- Kd (FcgRIIa H): 25 nM
- Kd (FcgRIIIa F): 3 nM
- Kd (FcgRIIb): 190 nM
- Kd (FcgRIIa R): 17 nM
- Kd (FcgRIIIa V): 0.86 nM

Continued, values first:

- Kd (FcgRIa): 0.047 nM
- Kd (FcgRIIa H): 120 nM
- Kd (FcgRIIIa F): 4.9 nM
- Kd (FcgRIIb): 3100 nM
- Kd (FcgRIIa R): 480 nM
- Kd (FcgRIIIa V): 1 nM
B7: H240-Kn198/H240-Hl210/L73-k0 (antibody)
chain 1: B1 chain 1 with F233L, I238M
chain 2: B1 chain 2
chain 3: B1 chain 3

- Kd (FcgRIa): 0.18 nM
- Kd (FcgRIIa H): 16 nM
- Kd (FcgRIIIa F): 2.9 nM
- Kd (FcgRIIb): 120 nM
- Kd (FcgRIIa R): 8.9 nM
- Kd (FcgRIIIa V): 0.73 nM
B9: H240-Kn231/H240-Hl068/L73-k0 (antibody)
chain 1: B1 chain 1 with F233I, Q234Y, E269D, A326D
chain 2: B1 chain 2 with A329K
chain 3: B1 chain 3

- Kd (FcgRIa): 0.18 nM
- Kd (FcgRIIa H): 66 nM
- Kd (FcgRIIIa F): 2.5 nM
- Kd (FcgRIIb): 210 nM
- Kd (FcgRIIa R): 21 nM
- Kd (FcgRIIIa V): 0.75 nM
B10: H240-Kn233/H240-Hl068/L73-k0 (antibody)
chain 1: B1 chain 1 with F233E, Q234Y, E269D, A326D
chain 2: B1 chain 2 with A329K
chain 3: B1 chain 3

- Kd (FcgRIa): 0.4 nM
- Kd (FcgRIIa H): 120 nM
- Kd (FcgRIIIa F): 2.5 nM
- Kd (FcgRIIb): 1400 nM
- Kd (FcgRIIa R): 200 nM
- Kd (FcgRIIIa V): 0.66 nM
B12: H240-Kn202/H240-Hl068/L73-k0 (antibody)
chain 1: B1 chain 1 with F233E, I238M
chain 2: B1 chain 2 with A329K
chain 3: B1 chain 3

- Kd (FcgRIa): 0.053 nM
- Kd (FcgRIIa H): 420 nM
- Kd (FcgRIIIa F): 3 nM
- Kd (FcgRIIb): 4500 nM
- Kd (FcgRIIa R): 720 nM
- Kd (FcgRIIIa V): 0.9 nM
B13: H240-Kn208/H240-Hl214/L73-k0 (antibody)
chain 1: B1 chain 1 with F233D, I238M
chain 2: B1 chain 2 with A329F
chain 3: B1 chain 3

- Kd (FcgRIa): 0.18 nM
- Kd (FcgRIIa H): 170 nM
- Kd (FcgRIIIa F): 5.7 nM
- Kd (FcgRIIb): 2600 nM
- Kd (FcgRIIa R): 480 nM
- Kd (FcgRIIIa V): 1.2 nM
B14: H240-Kn200/H240-Hl210/L73-k0 (antibody)
chain 1: B1 chain 1 with F233S, I238M
chain 2: B1 chain 2
chain 3: B1 chain 3

- Kd (FcgRIa): 0.089 nM
- Kd (FcgRIIa H): 160 nM
- Kd (FcgRIIIa F): 1.9 nM
- Kd (FcgRIIb): 3400 nM
- Kd (FcgRIIa R): 360 nM
- Kd (FcgRIIIa V): 0.77 nM
B16: H240-Kn226/H240-Hl214/L73-k0 (antibody)
chain 1: B1 chain 1
chain 2: B1 chain 2 with A329F
chain 3: B1 chain 3
